We go through 79 substances from the supplement of paper PMC11502859.

Several values for one entry are separate records, joined by “and”; a condition that tells them apart may be missing. Equal values may be shown once.
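Note: lentiviral eGFP-IRES-mCherry reporter pool sorted by FACS 96 h post-transduction, gated on mCherry-high cells, Illumina read counts normalized per million, median across four biological replicates.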

In this series the test system is HEK293T. The series is described as follows: median enrichment of reporter reads in eGFP-reduced (low/intermediate) vs eGFP-high sorted cells (eGFP-extension fusion abundance) (ratio); higher = stronger loss of eGFP-fusion protein abundance (more destabilising extension).
For the substance WSPTRPERPEMVLTMLPANRSRKPACE [ANXA2], the median enrichment was 1.38. Next, QCR [CCDC73]: 0.362; WGPGAFPRSSPSSI [RNASEK]: 0.405. Turning to “YAATAKKNRVRKLLGWVDLGIFYLVKALYSHRRKIWDISIIYILI [RFPL3]”, the median enrichment is 45.1. On to “RGLLPLGPLTLSGWWTTKYNPVYNLKIYFTFVLLYLFIKG [SMAD4]”, for which the median enrichment was 6.89. Turning to LTLLKTGQSLPLCTF [MYCN], the median enrichment turned out to be 15.2. As to SIVLSTNLKSKGSSQSQPLCP [HIST1H3E], the median enrichment amounted to 3.49. Next, “REQVPAPHTPWRLPLRLHRLLPSIQPGVQVALFRGQMQAVGRTLPVSCVPHRERLWGDGWGMQSLRANKSSSEPASPLNV [KHK]”: 2.84; CAS [FAM118B]: 0.212; YPYGE [PRKCH]: 0.563. Next, KKEKKQAILDENANGKIHITSYLL [PRDM4]: 6.45. Next, “LDLVQHGNDSYRLIQQLTLRQVVLFQRPLFLPKPCYELNQMCQVFSGVLSNILFSCMGTSPLQMTMLMDLFIYLFKSLFS [IFNA8]”: 6.11; RGQWLRGYVVQMLLLP [FILIP1]: 8.14. For the substance WQAAGAWGLHWLPPAP [HNF4A], the median enrichment came out at 5.96. As for NNNNNNNNN [Asn09], the median enrichment turned out to be 0.367. For GANASRAAVNLCKD [BDKRB2], the median enrichment was 0.298.

For the substance RDRALRCQGENPSSNPGYLETEKLEF [ITLN2], the median enrichment was found to be 0.166. As for LIIMLKSALTFLR [MCF2L2], the figure is 15.2.

On to CRRPPGGGSGGRCVDPTASSSY [FRAT2], for which the median enrichment came out at 0.875. Next, “QGAGPWMVPVCLALGMAVEGTWQKQPHVLPCPRPGVDKTRGVFWSPPAELEASHCNFSAQGLLNRCERPVPRVSL [SLC6A13]”: 14.4; “YKRPWSGPTLRPSISQALSAVIPRTQWAPCTPVSGAVRLGYIVNSASTERLALRASSESSSSGTPPKPTPPGTPLSGIPAKRR [PRRT1]”: 1.15; YEERDYLHIKNI [SLC35B1]: 0.713. Consider WLQNY [IFNAR2], for which the median enrichment was found to be 10.5. As for EAKSRCTQHVLGMQPQEVPDLKQPDSYLA [GREM1], the figure is 0.305; as for WPV [HNRNPUL1], 0.672; as for LASDLPNDLLLAQLDARQARLSLC [BNC2], 4.33. Regarding YLDQSKCGLNLLVDQC [SLC25A3], the median enrichment is 13.3. Next, SSSS [Ser04]: 0.471; WEKSYKCKECGKPLDDPQTLMNMRKFIL [ZNF141]: 11.7. As for KGRINK [NPIPA1], the figure is 0.274; as for QTSLHFILF [FABP1], 24.1. As for “QLVKTMGVVLTQPPIPQGASGQSFWHCSRIPPSWCVWRVGKAGRDINLEENT [ARHGEF25]”, the figure is 6.94; as for “QPDKRNKLFFLMDCSKRSLKIPWLSTYKTYYLNKEEYYVNIHIKNFGGFEKNELYIYKSTLKTNFNCLKQLF [NLGN1]”, 24. Regarding QDPVVLFESLRP [HAVCR1], the median enrichment came out at 0.393.

Turning to VVVV [Val04], the median enrichment stood at 1.54.

Consider CPAVGMAGLPGQTR [SLC25A10], for which the median enrichment was found to be 0.543. As for YLSVYLSIYLSIYLSIYVYLSCIYTRL [AK9], the figure is 9.52; as for “CQKHKMMQCGPPCTFCNVIAVNGKTIALLKTHL [MARCH11]”, 12.3. For the substance RQADEGATLTQSPQKAKCDSQVSSLTQR [PCARE], the median enrichment was determined as 0.302.

For SML [CTHRC1], the median enrichment turned out to be 3.13. As for YKLGLCFLLVTEDWVAP [SOAT1], the figure is 9.15; as for LWRWWPRGGLLGGVGDKTGQTTGPPKTVKG [HS6ST1], 11.4. Next, LSCPDAME [MYH2]: 0.416; KAGTDLGPKIPFQRN [RBMXL2]: 0.175; RRSPVCPVKTEIN [TM9SF2]: 0.793. As for “SDGSAGTHCPPWLPLGGNPNRAPGGNPAPNPPQQGCTVSPLED [ATP13A1]”, the median enrichment was determined as 0.555. As for CDQLSCTNFEV [IFNGR1], the figure is 0.207; as for WEKQAKEKSVTVPL [KIDINS220], 0.839; as for QRLDMLSPNEPLSSPGEGR [ISX], 0.656. As for “WAAPPGRWGAPLNDSVILKRWLGSWEKPSGCPLGNLHIISVLLVMSRWRGHRCAVSCSRNY [C19orf12]”, the figure is 22. Next, “RRINLQRSRQDDLAAWGLLSPRNSHVGFPLPGWPLDLSSKPFLTSS [CHI3L2]”: 6.12; “ACVARPDKHLQMAAAPTWDLPRRLEQKGLSLGWCFSSRVLGCMFCTASREGVSGGHHLWDTGSKGPVHSVISFLAPASPTSPR [TMEM141]”: 4.72; “RRRRRRGRAAGGTAQATQGRPLRPGGQGGRPASGDRLPPGLWQDVPSEGYFEEPPGPGDREAPVSSMNALPRTQARASGVHSE [MSANTD1]”: 0.682.

Take NNNNN [Asn05]: the median enrichment was determined as 0.217.

In the case of “CSFPVPSHYSPKLGKGGGTYEKNSSGFITDWE [CNOT9]”, the median enrichment was determined as 3.28.

Consider WFYILTS [CLHC1], for which the median enrichment came out at 5.45. As to LGLGRAHSAG [ATPAF2], the median enrichment came out at 10. Next, HHHHH [His05]: 0.675. Consider LDRTWEPGGWEGQG [SLC35G6], for which the median enrichment is 0.429.

For the substance WDREDPA [BTNL3], the median enrichment is 0.401. As for EHQETLE [KLHL14], the figure is 0.343; as for SGAGPGPRGGTSINSVAKLE [MYL7], 0.743; as for YLSGLSVL [MCOLN3], 19.

For the substance QHLVQQ [IFNA13], the median enrichment was 0.328.

On to YKP [ATP6V1A], for which the median enrichment is 0.175. As for KICQDKGSEDWTCSDIGVLLPSS [MAPK1], the figure is 2.3; as for SYKSIVSDWTITSFNNVSNNVLY [FAM135A], 30.6; as for SMKCLS [FANCI], 0.846.

Take “SVPRPCQPCCTGCRHCTRCEGSTPAQAEFLGSTSPAAWGTGIAHSVNGSTPAWAESLGSDLAAWGESLGSVLAAWGAGIAQSM [WNT9A]”: the median enrichment came to 7.93. Next, LVLIPTFPCDLGCRCSCCKMEANLTGVL [ADD2]: 2.88; YVPVSPFIAAFPWGRQ [CXCR5]: 6.43 and 2.95; LPGAGGWTC [PTH1R]: 1.02. As for QQFSHFLHLSDRTHHLCLP [ZDHHC15], the figure is 20.5; as for KHGGFGS [AKAIN1], 0.558. Next, SKNQRGSEKPRET [CDKN2A]: 0.493; “GAMLPSSSSPPSTGWDRRQVPAHACLRLFPPLGQALGWKLGS [ADCYAP1R1]”: 9.03. For APRAPRQRSRDG [Degron KLHDC3], the median enrichment worked out at 10.8.

Take “WHLFPPCLPLPLFWGHPFPPWLSPLKVSPPLGAFLEPCVSEWSPHSIVPRVCPQTLHLALLGRN [SNRPA]”: the median enrichment came out at 10.5. For the substance RRRRRRR [Arg07], the median enrichment worked out at 0.889.
